# Measurements taken from US12226490B2, “Anti-ROR1 antibody conjugates, compositions comprising anti ROR1 antibody conjugates, and methods of making and using anti-ROR1 antibody conjugates preliminary class” (Sutro Biopharma, Inc., priority 2022, dated 2025).
# Positions count from the first letter of the chain named.
# B1: SRP2196-A09 (antibody, V domains shown)
# VH: EVQLVESGGGLVQPGGSLRLSCAASGFNITGYYIHWVRQAPGKGLEWVGQISPNSGATHYADSVKGRFTISADTSKNTAYLQMNSLRAEDTAVYYCARDSRRYIRSWDYWGQGTLVTVSS
# VL: QAVVTQESALTTSPGETVTLTCRSSTGAVTTSNYANWVQEKPDHLFTGLIGGTNKRAPGVPARFSGSLIGDKAALTITGAQTEDEAIYFCALWYSNLWVFGGGTKLTVL
# B2: SRP2196-A10 (antibody, V domains shown)
# VH: B1 VH with Q50Y, T74I, Y94H, I104V
# VL: B1 VL
# B3: SRP2196-A11 (antibody, V domains shown)
# VH: B1 VH with A57T, H59Y, Y60D, I104V, S106G
# VL: B1 VL
# B4: SRP2196-B01 (antibody, V domains shown)
# VH: B1 VH with A57Y, H59Y, A79T, I104V
# VL: B1 VL
# B5: SRP2196-B02 (antibody, V domains shown)
# VH: B1 VH with G31Q, Q50Y, A57Q, H59Y, Y60D, I104V
# VL: B1 VL
# B6: SRP2196-B03 (antibody, V domains shown)
# VH: B1 VH with V12A, Q50Y, I104V, S106P, W107F
# VL: B1 VL
# B7: SRP2196-B04 (antibody, V domains shown)
# VH: B1 VH with G31E, Q50Y, H59Y, Y60Q, I104V, S106G
# VL: B1 VL
# B8: SRP2196-B06 (antibody, V domains shown)
# VH: B1 VH with A57S, H59Y, Y60S, I104V, R105L
# VL: B1 VL
# B9: SRP2196-B08 (antibody, V domains shown)
# VH: B1 VH with A57Y, H59Y, Y60L, I104V, S106G
# VL: B1 VL
# B10: SRP2196-B09 (antibody, V domains shown)
# VH: B1 VH with G15E, G31E, Q50Y, A57S, H59Y, I104V
# VL: B1 VL
# B11: SRP2196-B10 (antibody, V domains shown)
# VH: B1 VH with Q50S, S52T, N54L, H59S, Y60K
# VL: B1 VL
# B12: SRP2196-B11 (antibody, V domains shown)
# VH: B1 VH with K43R, A57Y, H59Y
# VL: B1 VL
# Columns and labels:
# [1] = Differential scanning fluorimetry (protein thermal shift; TM1 Fc, TM2 Fab); assay type: physicochemical; conditions: melting temperature of the Fab domain; Table 11
# Procedure: A protein thermal shift assay was carried out by mixing the protein to be assayed with an environmentally sensitive dye (SYPRO Orange, Life Technologies Cat #S-6650) in a phosphate buffered solution (PBS), and monitoring the fluorescence of the mixture in real time as it underwent controlled thermal denaturation. Protein solutions between 0.2-2 mg/mL were mixed at a 1-1 volumetric ratio with a 1-500 PBS-diluted solution of SYPRO Orange (SYPRO Orange stock dye is 5000× in DMSO). 10 μL aliquots of the protein-dye mixture were dispensed in quadruplicate in a 384-well microplate (Bio-Rad Cat #MSP-3852), and the plate was sealed with an optically clear sealing film (Bio-Rad Cat #MSB-1001) and placed in a 384-well plate real-time thermocycler (Bio-Rad CFX384 Real Time System). The protein-dye mixture was heated from 25° C. to 95° C., at increments of 0.1° C. per cycle (˜1.5° C. per minute), allowing 3 seconds of equilibration at each temperature before taking a fluorescence measurement. At the end of the experiment, the transition melting temperatures (TM1 and TM2) were determined using the Bio-Rad CFX manager software. TM1 represents the melting temperature of the Fc domain. TM2 represents the melting temperature of the Fab domain.
# For the thermal stability of an antibody, the first melting peak (Tm1) coincides with the unfolding of the CH2 domain (FC stability), while the second melting peak (Tm2) occurs upon unfolding of the Fab domain.
# [2] = target: T1, human ROR1-Fz (Homo sapiens, UniProt Q01973); assay: Biacore off-rate and kinetic analysis, ROR1 frizzled domain; assay type: binding; conditions: Table 11 (SP34 light chain)
# T1 construct: Frizzled (Fz, residues 165-305); HIS6 (C); purchased Acro Biosystems; host or cells: HEK293
# T1 sequence (Q01973 165-305): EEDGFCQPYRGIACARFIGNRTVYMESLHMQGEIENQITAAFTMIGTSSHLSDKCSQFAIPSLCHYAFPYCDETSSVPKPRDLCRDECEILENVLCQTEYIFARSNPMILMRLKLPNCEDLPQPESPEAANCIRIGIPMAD
# Procedure: Anti-Fc polyclonal antibodies were immobilized onto a CM5 chip (GE Life Sciences) using amine coupling chemistry (from Amine Coupling Kit, GE Life Sciences). The immobilization steps were carried out at a flow rate of 25 μL/min in 1×HBS-EP+ buffer (GE Life Sciences; 10× Stock diluted before use). The sensor surfaces were activated for 7 min with a mixture of NHS (0.05 M) and EDC (0.2 M). The Anti-Fc antibodies were injected over all 4 flow cells at a concentration of 25 ug/ml in 10 mM sodium acetate, pH 4.5, for 7 min. Ethanolamine (1 M, pH 8.5) was injected for 7 min to block any remaining activated groups. An average of 12,000 response units (RU) of capture antibody was immobilized on each flow cell.
# Off-rate and kinetic binding experiments were performed at 25° C. using 1×HBS-EP+ buffer. Test and control antibodies were injected over the anti-Fc surface at concentrations of 5-10 μg/mL for 12 seconds at a flow rate of 10 μL/min on flow cells 2, 3 and 4, followed by a buffer wash for 30 seconds at the same flow rate. Kinetic characterization of antibody samples was carried out with a range of antigen concentrations from 1-100 nM and 1 injection of 0 nM antigen (for example, 100, 50, 25, 6.25, 1.56 and 0 nM). After capturing ligand (antibody) on the anti-Fc surface, the analyte (hROR1, Fz or Kr domains, Acro Biosystems, Delaware) was bound for 180 seconds, followed by a 600 second dissociation phase at a flow rate of 50 μL/min. Between each ligand capture and analyte binding cycle, regeneration was carried out using 2 injections of 10 mM Glycine pH 2.0 for 30 seconds at 30 μL/min, followed by a 30 second buffer wash step.
# The data was fit with the Biacore T200 Evaluation software, using a 1-1 Langmuir binding model. KD (affinity, nM) was determined as a ratio of the kinetic rate constants calculated from the fits of the association and dissociation phases.
# For anti-CD3-LC-containing IgGs that had detectable ROR1-binding in ELISA (1944-A07 and 1987-C05 variants), those antibodies were further tested for binding by surface plasmon resonance (SPR). Binding kinetics were assessed to the ROR1-frizzled domain (hROR1-Fz) or the ROR1-extracellular domain (hROR1) for 1944-A07 and 1987-C05 variants, respectively. Briefly, anti-ROR1 antibodies were captured via anti-human Fc polyclonal antibodies immobilized to a CM5 chip, and ROR1 recombinant proteins were flowed across the surface to assess binding kinetics. hROR1 or hROR1-Fz domain (Acro Biosystems, Delaware) binding was tested at 100, 50, 25, 6.25, 1.5625 nM. The data was fit with the Biacore™ T200 Evaluation software, using a 1-1 Langmuir binding model. KD (affinity, nM) was determined as a ratio of the kinetic rate constants calculated from the fits of the association and dissociation phases.
Molecule,TM2 [1],Biacore human ROR1-Fz ka [2],Biacore human ROR1-Fz kd [2]
B1,75 °C,150000 M⁻¹ s⁻¹,0.000568 s⁻¹
B2,68 °C,172000 M⁻¹ s⁻¹,0.000479 s⁻¹
B3,73 °C,191000 M⁻¹ s⁻¹,0.000792 s⁻¹
B4,75 °C,131000 M⁻¹ s⁻¹,0.000401 s⁻¹
B5,69 °C,163000 M⁻¹ s⁻¹,0.000227 s⁻¹
B6,71 °C,124000 M⁻¹ s⁻¹,0.000945 s⁻¹
B7,72 °C,127000 M⁻¹ s⁻¹,0.000352 s⁻¹
B8,70 °C,142000 M⁻¹ s⁻¹,0.000423 s⁻¹
B9,75 °C,156000 M⁻¹ s⁻¹,0.000488 s⁻¹
B10,72 °C,130000 M⁻¹ s⁻¹,0.000427 s⁻¹
B11,70 °C,128000 M⁻¹ s⁻¹,0.000334 s⁻¹
B12,74 °C,137000 M⁻¹ s⁻¹,0.000597 s⁻¹
